Source: IntAct's records for PubMed 18532879

B1: Nuclear polyadenylated RNA-binding protein 4 (Saccharomyces cerevisiae), Q99383 (parent)
chain: MSSDEEDFNDIYGDDKPTTTEEVKKEEEQNKAGSGTSQLDQLAALQALSSSLNKLNNPNSNNSSSNNSNQDTSSSKQDGTANDKEGSNEDTKNEKKQESATSANANANASSAGPSGLPWEQLQQTMSQFQQPSSQSPPQQQVTQTKEERSKADLSKESCKMFIGGLNWDTTEDNLREYFGKYGTVTDLKIMKDPATGRSRGFGFLSFEKPSSVDEVVKTQHILDGKVIDPKRAIPRDEQDKTGKIFVGGIGPDVRPKEFEEFFSQWGTIIDAQLMLDKDTGQSRGFGFVTYDSADAVDRVCQNKFIDFKDRKIEIKRAEPRHMQQKSSNNGGNNGGNNMNRRGGNFGNQGDFNQMYQNPMMGGYNPMMNPQAMTDYYQKMQEYYQQMQKQTGMDYTQMYQQQMQQMAMMMPGFAMPPNAMTLNQPQQDSNATQGSPAPSDSDNNKSNDVQTIGNTSNTDSGSPPLNLPNGPKGPSQYNDDHNSGYGYNRDRGDRDRNDRDRDYNHRSGGNHRRNGRGGRGGYNRRNNGYHPYNR
partner: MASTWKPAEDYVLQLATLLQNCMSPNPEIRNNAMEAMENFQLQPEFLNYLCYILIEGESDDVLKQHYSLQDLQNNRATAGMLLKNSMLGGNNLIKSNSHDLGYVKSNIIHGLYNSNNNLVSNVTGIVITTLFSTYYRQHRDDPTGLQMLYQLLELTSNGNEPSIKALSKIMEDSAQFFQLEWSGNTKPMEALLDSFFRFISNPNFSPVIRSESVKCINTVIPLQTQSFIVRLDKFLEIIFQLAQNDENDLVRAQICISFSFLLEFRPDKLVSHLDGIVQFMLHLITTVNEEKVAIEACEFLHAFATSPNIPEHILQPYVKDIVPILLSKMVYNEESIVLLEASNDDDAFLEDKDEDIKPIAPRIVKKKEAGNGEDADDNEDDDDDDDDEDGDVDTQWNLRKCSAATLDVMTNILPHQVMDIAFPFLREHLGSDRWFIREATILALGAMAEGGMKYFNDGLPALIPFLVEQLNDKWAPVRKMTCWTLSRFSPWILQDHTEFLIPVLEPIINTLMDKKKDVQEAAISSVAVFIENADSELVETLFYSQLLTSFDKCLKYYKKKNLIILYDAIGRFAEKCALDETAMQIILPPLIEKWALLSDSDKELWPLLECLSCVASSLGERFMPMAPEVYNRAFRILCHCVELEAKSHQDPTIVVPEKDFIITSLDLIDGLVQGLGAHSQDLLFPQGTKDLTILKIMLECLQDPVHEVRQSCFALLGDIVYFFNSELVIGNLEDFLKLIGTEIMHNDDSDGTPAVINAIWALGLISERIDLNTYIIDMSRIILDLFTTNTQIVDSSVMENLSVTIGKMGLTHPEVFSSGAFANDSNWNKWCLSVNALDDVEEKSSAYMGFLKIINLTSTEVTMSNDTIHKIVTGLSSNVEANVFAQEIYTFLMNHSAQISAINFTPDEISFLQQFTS
B2: Nuclear polyadenylated RNA-binding protein NAB2 (Saccharomyces cerevisiae), P32505 (parent)
chain: MSQEQYTENLKVIVAEKLAGIPNFNEDIKYVAEYIVLLIVNGGTVESVVDELASLFDSVSRDTLANVVQTAFFALEALQQGESAENIVSKIRMMNAQSLGQSDIAQQQQQQQQQQQPDIAQQQPQQQPQQQPQQQPQQQPQQQPQQQPQQQPQQQPQLQPLQPQLGTQNAMQTDAPATPSPISAFSGVVNAAAPPQFAPVDNSQRFTQRGGGAVGKNRRGGRGGNRGGRNNNSTRFNPLAKALGMAGESNMNFTPTKKEGRCRLFPHCPLGRSCPHAHPTKVCNEYPNCPKPPGTCEFLHPNEDEELMKEMERTREEFQKRKADLLAAKRKPVQTGIVLCKFGALCSNPSCPFGHPTPANEDAKVIDLMWCDKNLTCDNPECRKAHSSLSKIKEVKPISQKKAAPPPVEKSLEQCKFGTHCTNKRCKYRHARSHIMCREGANCTRIDCLFGHPINEDCRFGVNCKNIYCLFRHPPGRVLPEKKGAAPNSNVPTNERPFALPENAIIENAPPQTSFTHQEQDTEMN
partner: B1 partner

Variants of: B1
Settings: with imb2_yeast KAP104, P38217

effect of a mutation on the interaction	Variant
disrupting interaction	Y529A
disrupting interaction strength	Y532F
disrupting interaction strength	Y532H
disrupting interaction strength	Y532M
disrupting interaction strength	R512A;R513A;R516A;R519A

Variants of: B2
Settings: with imb2_yeast KAP104, P38217

effect of a mutation on the interaction	Variant
disrupting interaction	R235A
disrupting interaction	R222A;P238A;L239A
disrupting interaction	F236A
disrupting interaction strength	R218A;R219A;R222A;R226A;R229A
disrupting interaction	R235A;P238A;L239A
disrupting interaction	P238A;L239A
disrupting interaction	K216A;N217A;R218A;R219A
disrupting interaction strength	L239E
disrupting interaction strength	L239P
disrupting interaction strength	L239I
disrupting interaction strength	L239D
